From article PMC11496786

What was measured:
[1] = target: mutant outer-arm dynein (OAD) of the Chlamydomonas mutant 214 (oda6E279K), carrying IC2 E279K (Chlamydomonas reinhardtii (endogenous in flagellar axonemes)) (UniProt Q39610)
[2] = target: wild-type outer-arm dynein (OAD) of Chlamydomonas (Chlamydomonas reinhardtii (endogenous in flagellar axonemes)) (UniProt Q39610)

Row | microtubule sliding speed in microtubule bundles formed with OAD, on perfusion with 1 mM ATP [1] [μm/sec] | microtubule sliding speed in microtubule bundles formed with OAD, on perfusion with 1 mM ATP [2] [μm/sec] | Substance
1 | 4.3 |  | mutant outer-arm dynein (OAD) of the Chlamydomonas mutant 214 (oda6E279K), carrying IC2 E279K (from UniProt Q39610 1-4499; Q39565 1-4568; Q39575 1-4485; Q39578 1-683; P27766 1-567) (complex)
2 |  | 35.3 | wild-type outer-arm dynein (OAD) of Chlamydomonas (from UniProt Q39610 1-4499; Q39565 1-4568; Q39575 1-4485; Q39578 1-683; P27766 1-567) (complex)
